According to publication PMC3295541 (Biochemistry, 2010):

Tests used:
PdxB = PdxB (Escherichia coli, UniProt P05459); test: coupled assay with SerC and PdxA, NADH formation at […] nm; format: biochemical
SEC = molecular target: the molecule itself; test: SEC
purified protein [1] = substrate: O=C(O)CC(=O)C(=O)O; test: purified protein; format: biochemical, Escherichia coli; settings: 4PE 29 μM, TND buffer pH 8.0, room temperature
purified protein [2] = substrate: O=C(O)[C@H](O)[C@H](O)COP(=O)(O)O; test: purified protein; format: biochemical, Escherichia coli; settings: αKG 2 mM, TND buffer pH 8.0, room temperature
purified protein [3] = substrate: O=C(O)CCC(=O)C(=O)O; test: purified protein; format: biochemical, Escherichia coli; settings: 4PE 29 μM, TND buffer pH 8.0, room temperature
purified protein [4] = substrate: CC(=O)C(=O)O; test: purified protein; format: biochemical, Escherichia coli; settings: 4PE 29 μM, TND buffer pH 8.0, room temperature

IC50 (PdxB) [µM] | Molecule | stoichiometry N (SEC) | Km (purified protein [1]) [µM] | kcat (purified protein [1]) [s⁻¹] | kcat/Km (purified protein [1]) [M⁻¹ s⁻¹] | Km (purified protein [2]) [µM] | Km (purified protein [3]) [µM] | kcat (purified protein [3]) [s⁻¹] | kcat/Km (purified protein [3]) [M⁻¹ s⁻¹] | Km (purified protein [4]) [µM] | kcat (purified protein [4]) [s⁻¹] | kcat/Km (purified protein [4]) [M⁻¹ s⁻¹]
> 2000 | O=C(O)CC[C@H](O)C(=O)O [L-2-HGA] |  |  |  |  |  |  |  |  |  |  | 
 | PdxB (4-phospho-D-erythronate dehydrogenase) from E. coli (enzyme, UniProt P05459 1-378, looked up) MKILVDENMPYARDLFSRLGEVTAVPGRPIPVAQLADADALMVRSVTKVNESLLAGKPIKFVGTATAGTDHVDEAWLKQAGIGFSAAPGCNAIAVVEYVFSSLLMLAERDGFSLYDRTVGIVGVGNVGRRLQARLEALGIKTLLCDPPRADRGDEGDFRSLDELVQRADILTFHTPLFKDGPYKTLHLADEKLIRSLKPGAILINACRGAVVDNTALLTCLNEGQKLSVVLDVWEGEPELNVELLKKVDIGTSHIAGYTLEGKARGTTQVFEAYSKFIGHEQHVALDTLLPAPEFGRITLHGPLDQPTLKRLVHLVYDVRRDDAPLRKVAGIPGEFDKLRKNYLERREWSSLYVICDDASAASLLCKLGFNAVHHPAR | 2 | 86 ± 19 | 1.1 ± 0.31 | 13000 ± 2100 | 2.9 ± 1.3 | 93 ± 19 | 1 ± 0.24 | 11000 ± 2400 | 128 ± 20 | 1.3 ± 0.14 | 9900 ± 160
